Assay results published in PMC9482650, “Quantitative fragmentomics allow affinity mapping of interactomes” (Nature Communications, 2022).

B1: FZD1, Q9UP38 (peptide)
chain: TNSKQGETTV
B2: SLC1A7, O00341 (peptide)
chain: IQISELETNV

molecular target: FRMPD4, Q14CM0; assay: holdup assay; design: key: below the threshold = too weak to quantify, mostly under pKd 3.1 to 4; details: plain residues with an end cap or a label only (N-terminal biotin on a linker: ado-ado)
Sequence (Q14CM0 67-160): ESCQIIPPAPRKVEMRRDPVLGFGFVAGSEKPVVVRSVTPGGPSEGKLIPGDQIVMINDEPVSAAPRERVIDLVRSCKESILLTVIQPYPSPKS

Question: For B1, which pKd is on record?
Answer: below the threshold

Question: How did the pKd turn out when B2 was run?
Answer: 3.56

molecular target: Inadl_4, Q8NI35; assay: holdup assay; design: key: below the threshold = too weak to quantify, mostly under pKd 3.1 to 4; details: plain residues with an end cap or a label only (N-terminal biotin on a linker: ado-ado)
Sequence (Q8NI35 547-651): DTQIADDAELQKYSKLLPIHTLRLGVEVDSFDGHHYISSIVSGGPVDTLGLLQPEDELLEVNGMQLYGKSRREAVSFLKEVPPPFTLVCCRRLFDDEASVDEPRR

Question: B1 was tested. Which pKd did it give?
Answer: below the threshold

Question: How did the pKd turn out when B2 was run?
Answer: below the threshold

molecular target: Inadl_2, Q8NI35; assay: holdup assay; design: key: below the threshold = too weak to quantify, mostly under pKd 3.1 to 4; details: plain residues with an end cap or a label only (N-terminal biotin on a linker: ado-ado)
Sequence (Q8NI35 238-335): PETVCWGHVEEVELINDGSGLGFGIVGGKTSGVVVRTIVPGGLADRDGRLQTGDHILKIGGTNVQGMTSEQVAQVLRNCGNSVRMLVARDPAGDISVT

Question: B1 was tested. Which pKd did it give?
Answer: below the threshold

Question: For B2, which pKd is on record?
Answer: below the threshold

molecular target: NHERF4_1, Q86UT5-2; assay: holdup assay; design: key: below the threshold = too weak to quantify, mostly under pKd 3.1 to 4; details: plain residues with an end cap or a label only (N-terminal biotin on a linker: ado-ado)
Sequence (Q86UT5 other isoform, or with tags, fused parts or gaps): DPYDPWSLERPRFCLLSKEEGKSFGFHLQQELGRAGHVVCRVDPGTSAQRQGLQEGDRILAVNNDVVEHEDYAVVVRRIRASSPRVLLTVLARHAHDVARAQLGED

Question: With B1 as the binder, how does the pKd read?
Answer: below the threshold

Question: With B2 as the binder, how does the pKd read?
Answer: below the threshold

molecular target: FRMPD2_3, Q68DX3; assay: holdup assay; design: key: below the threshold = too weak to quantify, mostly under pKd 3.1 to 4; details: plain residues with an end cap or a label only (N-terminal biotin on a linker: ado-ado)
Sequence (Q68DX3 1073-1166): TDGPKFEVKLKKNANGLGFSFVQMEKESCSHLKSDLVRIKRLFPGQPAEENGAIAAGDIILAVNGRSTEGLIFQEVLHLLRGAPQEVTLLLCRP

Question: Which pKd does the source give for B1 here?
Answer: 3.74

Question: How did the pKd turn out when B2 was run?
Answer: below the threshold

molecular target: T1, LRRC7, Q96NW7; assay: holdup assay; design: key: below the threshold = too weak to quantify, mostly under pKd 3.1 to 4; details: plain residues with an end cap or a label only (N-terminal biotin on a linker: ado-ado)
T1 sequence (Q96NW7 1440-1537, limits assumed, looked up): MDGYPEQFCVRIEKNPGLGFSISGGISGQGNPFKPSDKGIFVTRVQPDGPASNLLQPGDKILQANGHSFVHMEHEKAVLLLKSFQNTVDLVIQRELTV

Question: With B1 as the binder, how does the pKd read?
Answer: below the threshold

Question: Which pKd does the source give for B2 here?
Answer: below the threshold

molecular target: GRIP2_6, Q9C0E4; assay: holdup assay; design: key: below the threshold = too weak to quantify, mostly under pKd 3.1 to 4; details: plain residues with an end cap or a label only (N-terminal biotin on a linker: ado-ado)
Sequence (Q9C0E4 648-740): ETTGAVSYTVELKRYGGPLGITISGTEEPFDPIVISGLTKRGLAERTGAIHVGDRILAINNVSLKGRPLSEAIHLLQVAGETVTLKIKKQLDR

Question: B1 was tested. Which pKd did it give?
Answer: below the threshold

Question: With B2 as the binder, how does the pKd read?
Answer: below the threshold

molecular target: MAGI2_3, Q86UL8; assay: holdup assay; design: key: below the threshold = too weak to quantify, mostly under pKd 3.1 to 4; details: plain residues with an end cap or a label only (N-terminal biotin on a linker: ado-ado)
Sequence (Q86UL8 600-682): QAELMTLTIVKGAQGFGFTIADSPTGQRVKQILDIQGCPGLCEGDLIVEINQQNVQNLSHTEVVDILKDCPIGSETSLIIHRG

Question: How did the pKd turn out when B1 was run?
Answer: 3.83

Question: With B2 as the binder, how does the pKd read?
Answer: 3.96

molecular target: T2, GRIP1_2, Q9Y3R0; assay: holdup assay; design: key: below the threshold = too weak to quantify, mostly under pKd 3.1 to 4; details: plain residues with an end cap or a label only (N-terminal biotin on a linker: ado-ado)
T2 sequence (Q9Y3R0 145-248, limits assumed, looked up): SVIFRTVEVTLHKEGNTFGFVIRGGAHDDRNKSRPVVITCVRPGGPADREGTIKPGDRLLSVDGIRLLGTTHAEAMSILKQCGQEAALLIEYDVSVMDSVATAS

Question: For B1, which pKd is on record?
Answer: 3.49

Question: How did the pKd turn out when B2 was run?
Answer: below the threshold

molecular target: T3, MPDZ_10, O75970; assay: holdup assay; design: key: below the threshold = too weak to quantify, mostly under pKd 3.1 to 4; details: plain residues with an end cap or a label only (N-terminal biotin on a linker: ado-ado)
T3 sequence (O75970 1624-1722, limits assumed, looked up): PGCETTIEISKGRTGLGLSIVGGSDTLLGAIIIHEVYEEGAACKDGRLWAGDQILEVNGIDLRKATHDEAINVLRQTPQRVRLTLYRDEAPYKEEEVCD

Question: With B1 as the binder, how does the pKd read?
Answer: below the threshold

Question: With B2 as the binder, how does the pKd read?
Answer: below the threshold

molecular target: DLG4_3, P78352; assay: holdup assay; design: key: below the threshold = too weak to quantify, mostly under pKd 3.1 to 4; details: plain residues with an end cap or a label only (N-terminal biotin on a linker: ado-ado)
Sequence (P78352 306-403): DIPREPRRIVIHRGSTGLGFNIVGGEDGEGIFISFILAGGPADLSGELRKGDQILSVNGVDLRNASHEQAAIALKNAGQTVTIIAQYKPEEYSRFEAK

Question: B1 was tested. Which pKd did it give?
Answer: 3.76

Question: For B2, which pKd is on record?
Answer: below the threshold

molecular target: PDZRN4_1, Q6ZMN7; assay: holdup assay; design: key: below the threshold = too weak to quantify, mostly under pKd 3.1 to 4; details: plain residues with an end cap or a label only (N-terminal biotin on a linker: ado-ado)
Sequence (Q6ZMN7 213-318): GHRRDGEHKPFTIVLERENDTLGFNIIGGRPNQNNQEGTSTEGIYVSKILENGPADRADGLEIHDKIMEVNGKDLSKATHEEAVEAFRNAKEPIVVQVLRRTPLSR

Question: B1 was tested. Which pKd did it give?
Answer: 4.06

Question: B2 was tested. Which pKd did it give?
Answer: 4.03

molecular target: MAGI3_2, Q5TCQ9; assay: holdup assay; design: key: below the threshold = too weak to quantify, mostly under pKd 3.1 to 4; details: plain residues with an end cap or a label only (N-terminal biotin on a linker: ado-ado)
Sequence (Q5TCQ9 398-503): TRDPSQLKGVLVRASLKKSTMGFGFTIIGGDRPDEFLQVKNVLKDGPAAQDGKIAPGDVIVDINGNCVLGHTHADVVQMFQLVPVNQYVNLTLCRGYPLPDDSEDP

Question: With B1 as the binder, how does the pKd read?
Answer: 4.94

Question: For B2, which pKd is on record?
Answer: 4.28

molecular target: LDB3, O75112; assay: holdup assay; design: key: below the threshold = too weak to quantify, mostly under pKd 3.1 to 4; details: plain residues with an end cap or a label only (N-terminal biotin on a linker: ado-ado)
Sequence (O75112 1-94): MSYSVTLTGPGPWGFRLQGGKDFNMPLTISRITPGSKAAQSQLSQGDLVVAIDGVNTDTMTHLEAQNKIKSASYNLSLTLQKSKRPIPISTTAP

Question: For B1, which pKd is on record?
Answer: below the threshold

Question: With B2 as the binder, how does the pKd read?
Answer: below the threshold

molecular target: MAST1, Q9Y2H9; assay: holdup assay; design: key: below the threshold = too weak to quantify, mostly under pKd 3.1 to 4; details: plain residues with an end cap or a label only (N-terminal biotin on a linker: ado-ado)
Sequence (Q9Y2H9 962-1065): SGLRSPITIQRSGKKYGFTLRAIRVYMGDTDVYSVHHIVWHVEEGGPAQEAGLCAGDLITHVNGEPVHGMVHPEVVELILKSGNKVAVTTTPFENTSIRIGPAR

Question: B1 was tested. Which pKd did it give?
Answer: 4.32

Question: How did the pKd turn out when B2 was run?
Answer: 4.71

molecular target: GIPC2, Q8TF65; assay: holdup assay; design: key: below the threshold = too weak to quantify, mostly under pKd 3.1 to 4; details: plain residues with an end cap or a label only (N-terminal biotin on a linker: ado-ado)
Sequence (Q8TF65 112-203): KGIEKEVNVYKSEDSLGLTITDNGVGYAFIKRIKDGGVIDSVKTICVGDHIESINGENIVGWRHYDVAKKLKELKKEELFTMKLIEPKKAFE

Question: B1 was tested. Which pKd did it give?
Answer: 4.18

Question: With B2 as the binder, how does the pKd read?
Answer: 3.86

molecular target: T4, RAPGEF6, Q8TEU7; assay: holdup assay; design: key: below the threshold = too weak to quantify, mostly under pKd 3.1 to 4; details: plain residues with an end cap or a label only (N-terminal biotin on a linker: ado-ado)
T4 sequence (Q8TEU7 525-625, limits assumed, looked up): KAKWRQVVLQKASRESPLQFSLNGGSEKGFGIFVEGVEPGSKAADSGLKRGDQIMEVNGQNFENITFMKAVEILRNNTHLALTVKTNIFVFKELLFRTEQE

Question: With B1 as the binder, how does the pKd read?
Answer: 3.54

Question: How did the pKd turn out when B2 was run?
Answer: below the threshold

molecular target: T5, GRIP1_7, Q9Y3R0; assay: holdup assay; design: key: below the threshold = too weak to quantify, mostly under pKd 3.1 to 4; details: plain residues with an end cap or a label only (N-terminal biotin on a linker: ado-ado)
T5 sequence (Q9Y3R0 999-1096, limits assumed, looked up): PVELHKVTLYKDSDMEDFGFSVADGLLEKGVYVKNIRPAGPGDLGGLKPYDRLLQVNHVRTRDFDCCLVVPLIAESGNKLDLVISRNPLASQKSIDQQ

Question: With B1 as the binder, how does the pKd read?
Answer: below the threshold

Question: B2 was tested. Which pKd did it give?
Answer: below the threshold

molecular target: T6, RADIL, Q96JH8; assay: holdup assay; design: key: below the threshold = too weak to quantify, mostly under pKd 3.1 to 4; details: plain residues with an end cap or a label only (N-terminal biotin on a linker: ado-ado)
T6 sequence (Q96JH8 971-1071, limits assumed, looked up): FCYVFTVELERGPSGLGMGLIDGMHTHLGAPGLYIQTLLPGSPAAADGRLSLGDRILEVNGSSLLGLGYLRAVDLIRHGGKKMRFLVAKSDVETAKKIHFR

Question: With B1 as the binder, how does the pKd read?
Answer: 3.63

Question: Which pKd does the source give for B2 here?
Answer: below the threshold

molecular target: PTPN3, P26045; assay: holdup assay; design: key: below the threshold = too weak to quantify, mostly under pKd 3.1 to 4; details: plain residues with an end cap or a label only (N-terminal biotin on a linker: ado-ado)
Sequence (P26045 505-587): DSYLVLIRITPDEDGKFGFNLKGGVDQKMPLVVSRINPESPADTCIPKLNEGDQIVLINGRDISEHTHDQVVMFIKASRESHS

Question: Which pKd does the source give for B1 here?
Answer: 4.79

Question: B2 was tested. Which pKd did it give?
Answer: 4.84

molecular target: T7, DFNB31_2, Q9P202; assay: holdup assay; design: key: below the threshold = too weak to quantify, mostly under pKd 3.1 to 4; details: plain residues with an end cap or a label only (N-terminal biotin on a linker: ado-ado)
T7 sequence (Q9P202 274-371, limits assumed, looked up): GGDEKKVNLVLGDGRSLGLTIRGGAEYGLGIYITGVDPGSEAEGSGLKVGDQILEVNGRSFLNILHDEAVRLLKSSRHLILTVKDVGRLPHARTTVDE

Question: How did the pKd turn out when B1 was run?
Answer: below the threshold

Question: How did the pKd turn out when B2 was run?
Answer: below the threshold

molecular target: IL16_1, Q14005; assay: holdup assay; design: key: below the threshold = too weak to quantify, mostly under pKd 3.1 to 4; details: plain residues with an end cap or a label only (N-terminal biotin on a linker: ado-ado)
Sequence (Q14005 210-306): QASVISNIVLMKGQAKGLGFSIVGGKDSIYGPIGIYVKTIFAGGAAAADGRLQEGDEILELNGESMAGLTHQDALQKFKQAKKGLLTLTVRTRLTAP

Question: With B1 as the binder, how does the pKd read?
Answer: below the threshold

Question: How did the pKd turn out when B2 was run?
Answer: 4.05

molecular target: MAGI2_5, Q86UL8; assay: holdup assay; design: key: below the threshold = too weak to quantify, mostly under pKd 3.1 to 4; details: plain residues with an end cap or a label only (N-terminal biotin on a linker: ado-ado)
Sequence (Q86UL8 915-1017): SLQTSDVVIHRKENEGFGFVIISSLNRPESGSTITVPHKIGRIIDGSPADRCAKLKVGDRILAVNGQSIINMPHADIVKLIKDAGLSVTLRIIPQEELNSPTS

Question: Which pKd does the source give for B1 here?
Answer: below the threshold

Question: For B2, which pKd is on record?
Answer: 4.11

molecular target: T8, MPP7, Q5T2T1; assay: holdup assay; design: key: below the threshold = too weak to quantify, mostly under pKd 3.1 to 4; details: plain residues with an end cap or a label only (N-terminal biotin on a linker: ado-ado)
T8 sequence (Q5T2T1 134-230, limits assumed, looked up): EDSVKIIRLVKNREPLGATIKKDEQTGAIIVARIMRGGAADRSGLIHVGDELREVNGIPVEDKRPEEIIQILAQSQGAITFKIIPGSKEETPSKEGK

Question: With B1 as the binder, how does the pKd read?
Answer: below the threshold

Question: How did the pKd turn out when B2 was run?
Answer: below the threshold

molecular target: T9, MPP6, Q9NZW5; assay: holdup assay; design: key: below the threshold = too weak to quantify, mostly under pKd 3.1 to 4; details: plain residues with an end cap or a label only (N-terminal biotin on a linker: ado-ado)
T9 sequence (Q9NZW5 125-219, limits assumed, looked up): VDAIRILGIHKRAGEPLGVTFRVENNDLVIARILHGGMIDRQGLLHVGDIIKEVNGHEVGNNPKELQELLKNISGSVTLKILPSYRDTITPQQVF

Question: Which pKd does the source give for B1 here?
Answer: below the threshold

Question: How did the pKd turn out when B2 was run?
Answer: below the threshold

molecular target: T10, MPDZ_5, O75970; assay: holdup assay; design: key: below the threshold = too weak to quantify, mostly under pKd 3.1 to 4; details: plain residues with an end cap or a label only (N-terminal biotin on a linker: ado-ado)
T10 sequence (O75970 695-796, limits assumed, looked up): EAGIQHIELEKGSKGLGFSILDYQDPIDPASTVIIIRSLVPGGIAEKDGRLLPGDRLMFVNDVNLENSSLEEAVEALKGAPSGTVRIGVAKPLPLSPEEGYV

Question: With B1 as the binder, how does the pKd read?
Answer: below the threshold

Question: Which pKd does the source give for B2 here?
Answer: below the threshold

molecular target: CASK, O14936; assay: holdup assay; design: key: below the threshold = too weak to quantify, mostly under pKd 3.1 to 4; details: plain residues with an end cap or a label only (N-terminal biotin on a linker: ado-ado)
Sequence (O14936 487-570): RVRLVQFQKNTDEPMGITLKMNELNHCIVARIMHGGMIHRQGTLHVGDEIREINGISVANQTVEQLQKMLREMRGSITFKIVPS

Question: For B1, which pKd is on record?
Answer: below the threshold

Question: B2 was tested. Which pKd did it give?
Answer: below the threshold

molecular target: HTRA2, O43464; assay: holdup assay; design: key: below the threshold = too weak to quantify, mostly under pKd 3.1 to 4; details: plain residues with an end cap or a label only (N-terminal biotin on a linker: ado-ado)
Sequence (O43464 355-458): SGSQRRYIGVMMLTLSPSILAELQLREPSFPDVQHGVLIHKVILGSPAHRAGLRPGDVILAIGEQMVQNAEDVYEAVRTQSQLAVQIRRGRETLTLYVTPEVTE

Question: How did the pKd turn out when B1 was run?
Answer: 3.55

Question: For B2, which pKd is on record?
Answer: below the threshold
